Laboratory results published in the nanobody polyreactivity screen of Harvey et al. (2022).

Assay: yeast display, Sf9 membrane polyspecificity reagent, FACS + sequencing; frameworks hold sequencing errors
Procedure, shortened: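 In a synthetic yeast display library (Saccharomyces cerevisiae BJ5465), nanobody expression was induced with galactose for 36–48 hours. FACS gates were set low and high (top ~1%) using anti-HA fluorescence for expression and streptavidin fluorescence for binding of the Sf9 membrane reagent. Each polyreactivity label is drawn from the gate of origin.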

Sequence	polyreactivity (PSR sort gate)
QVHLVESGGGIVQAGGSLRLSCAASGSIFKYYPMGWYRQAAGKERELVAVISSGGRTYYADSVKGRFTISRDNAKNTVYLQMNSLKPEDTAVYYCAVYRTFRYRYDSWGQGTQVTVSS	high polyreactivity
QVHLVESGGGIVQAGGSLRLSSAATGRTFPYNAMGWYRQAPGKERELVAAISSGGSTNYADSVKGRFTISRDNAKNTVYLQMNSLKPEDTAVYYCATKYQRRPYRYYYWGQGTQVTVSS	low polyreactivity
QVHLVESGGGLDQAGASLRITSAATGFTFRQNVKRWYRQAPGKESEFVATITWSGGRTSYADSVKGRFTISRDNAKNTVYLQMNSLKPEDTAVYYCAARFFSYSQYAYNYWGQGTQVTVSS	high polyreactivity
QVHLVESGGGLFQAGGSLRISCSASGSIFARNAMGWYRQAPGKERELVAAISRSGGSTYYADSVKGRFTISRDNAMMTVSFQMNSLKPEDTAVYYCAAVRRRTVGYNYWGQGTQVTVSS	high polyreactivity
QVHLVESGGGLFQAGGSLRLRCAASGFTFASNAMGWYIQAPGKERELVAAITRSGGSTFYADSVKGRFTISRDNAKNTVYLQMKSLKPEDTAVYYCNAAPYGFGWRVRAFTGYDYWGQGTQVTVSS	low polyreactivity
QVHLVESGGGLFQAVLSLRLSCAASGFIFQRYPMGWYRQAPGKESELVAAISSGGGTNYADSVKGRFTISRDNAKKTVYLQLNSLIPEDTAVYYCARPYYVYSQSSDYWGQGTQVTVSS	low polyreactivity
QVHLVESGGGLGQAGGSLRLSCAASGIIFRLYAKGWYIPAPGKERELVAAISRRGDSTYYADSVKGRFTISRDNAKNTVYLQMIILKPEDTAVYYCAAERWGDYGYWGQGTQVTVSS	high polyreactivity
QVHLVESGGGLLQAGGSLRLSCAASGSIFAYNAMGWYREAPRKERELVASITNGGSTYYADSVKGRFTISRYNAKNSVYLQMKSLKPEDTAVYYCNTDFDGYSVGYDGYWGQGTQVTVSA	low polyreactivity
QVHLVESGGGLVEAAVSLRLSYAASGITVKSYAMGSYRQAPGKERELVADISSSGGTTYYADYVKGRFTISRDNAKNTVYLKMKSLKAEHTAVYYCNAKWGRYFSGGYGDEYDYWGQGTQVTVSS	high polyreactivity
QVHLVESGGGLVHAGGRLRLSCAASGRIFGLNAMGWYRQAPGKERELVAAIDIIGGSTYYADSVKGRFTISRDNAKNTVYLQMNSLIPEDTAVFYCAAEADFWRFVEFDYWGQGTQVTVSS	low polyreactivity
QVHLVESGGGLVNAGGSLRLSCAASGRIFSGYAMGWYRQAPGKERELVAAITSVGSTNNADSVKGRFTISRDNAKNTVYLQMNSLKPEDTAVYYCAARGSYARGYDYWGQGTQVTVSS	high polyreactivity
QVHLVESGGGLVQAAGSLRLSCAASGSTFKYNAMGWYRQAPGKERELVAAITRGGRTYYADSVKGRFTISRDNAKNTVYLQMNSLKPEDTEVYYCAAAIPSGTFYAGAYYYWGQGTQVTVSS	high polyreactivity
QVHLVESGGGLVQAGASLRLSCAASGFTFGVNAMGWSRQAPGKERELVAVITSGGNTYYADSVKGRFTISRDNAKNTVYLHMNSLNPEDTAVYYCAAYGRASWERDYWGKGTQVTVSS	low polyreactivity
QVHLVESGGGLVQAGASLRLSCAASGRIFYKYAMGWYRQAPGKERELVAAISYRGGSTYYADSVKGRFTISRDNAKNSVYLQMKSLKPEDNAVYYCAADRWYYSVSTKSDSWGQGTQVTVSS	high polyreactivity
QVHLVESGGGLVQAGCSLRLSCAASGSIFSYYAMGWYRQAPGKERELVAAISVSGGNYADSVKGRFTISRDNAKNTVYLQMNSLKPEDTAVYYCAALNVYGSADVTTLEMDYWGQGTQVTVSS	low polyreactivity
QVHLVESGGGLVQAGGILRLRSAASGSTVYGYAMGWYRQAPGKERELVAAITRSGGSTYYADSVKGRFTISRDNATNKVYLQMNSQKPEDTEFYYCNKYGYKGGDGYDYWGQRTQVTVSS	high polyreactivity
QVHLVESGGGLVQAGGILRLSCAASGLTFRYYTMGWYRQEPGKERELVASITIRGGSTYYADSVKGRFTISRDNAKNTVYLQMNSLKPEDTAVYYCNTRYGFSFGYWGQGTQVTVSS	high polyreactivity
QVHLVESGGGLVQAGGILRLSCAASMVWYRQAPGKERELVAAINTRTGTTYYADSVKGRFTISRDNAKNTVYLQMNSLKPEDTAVYYCAARTYRTRYYYWGQGTQVTVSS	high polyreactivity
QVHLVESGGGLVQAGGRLRLSCAASGSIFDRYAMGWYRQAPGKEREFVARIRSSTGGTDYADSVKGRFTISRDNAKNTVYLQMNILKPEDTAVYYCAASSSHYYYWIQGSYWGRGVYWGQGSQVTVSS	high polyreactivity
QVHLVESGGGLVQAGGRLRLSCAASGSIFRLYAMGWYRQAPGKERELVARITTGGSTNYADSVKGRFTISLDNAKNTVYFQMNSLKPEDTAVYYCNGGVLVTAQMGWQKYSYWGQGSQVTVSS	high polyreactivity
QVHLVESGGGLVQAGGSHRLSCASSGFIFYFYTMGWYRQAPGKERELVAGITWLDGSTYYADSVKGRFTISRDNAKNTVYLQMNSLKPEDTAVYYCAVDYDLVVSPYYYWGQGTQVTVSS	low polyreactivity
QVHLVESGGGLVQAGGSIRLSCAASGSTFLVYAMGWYRPAPGKGRELVAAISRSGSSTYYADSVKGRFTISRDNAMNTVYLQMIRLKPEDTAVYYCNAYSQYWLGNNYWGQGTQVTVSS	high polyreactivity

Sequence	polyreactivity (PSR sort gate)
QVHLVESGGGLVQAGGSLRISCAASGFTFRKYSMGWYRQAPGKERELVAGITSGGSTNNADSVKGRFTISRDNAKNTVYLQMNSLKPEDTAVYYCNAARYYAYIGDYWGQCTQVTVSS	high polyreactivity
QVHLVESGGGLVQAGGSLRISCAASGRIFWWYAMGWYRQAPGKERELVAAISTGSRTYYADSVKGRFTISRDNAKNTVFLQMNRLKPEDTAVYYCVADGLYSVSRSSIFEYWGHGTQVTVSS	low polyreactivity
QVHLVESGGGLVQAGGSLRISCAASGRTFQVYAMGRYRQAPGKERELVAAISLTGGGTYYADSVKGRFTISRDYANNTVYLQMNSLKPEDTAVYYCAVRRRTHLGFLYEYWGQGTQVTVSS	high polyreactivity
QVHLVESGGGLVQAGGSLRLICAASGSIFSAYALGWYRQAPGKERELVAAITWRGGSTYYADSVKGRFTISRDNAKNTVYLQMNSLKPEDTAVYYCAKYYYYLRSARKYDYWGQGTQVTVSS	high polyreactivity
QVHLVESGGGLVQAGGSLRLICAASGSTFLYYAKGWYRQAPGNEMELVAANSQSSASTYYADSVKGRFTISRDNAKTTIYFQIISLKPEDTAVYYCAADYWSVPYIYEYWRQGTQVTVSS	high polyreactivity
QVHLVESGGGLVQAGGSLRLICAASGYIFQRNAMGWYRQAPGKEREFVAAITRSGGTTYYADSVKGRFTISRDNAKNTVYLQMNSLKPEDTAGYYCNAPRSDRSVYHYHYWGQGTQVTVSS	low polyreactivity
QVHLVESGGGLVQAGGSLRLRSAASGRTFGWNVMGWYRQAPGKERELVAAISGSGGSTYYADSVKGRFTISRDNAKNTVYLQMNSLKPEDTAVYYCDALYGPGREYDYWGQGTQVTVSS	low polyreactivity
QVHLVESGGGLVQAGGSLRLSCAASASTYGSNSMGWYRQAPGKERELVAAITLPGASTYYADSVKGRFTISRDNAKNTVSLEMNSLKGEDTSVYSCAAQIHPRRDYSAFDYWGPGTQVTVSS	low polyreactivity
QVHLVESGGGLVQAGGSLRLSCAASGFIFDKYAMGWYRQAPGKERELVAAITDTGGNTYYADSVKGRFTISRDNAKNTVYLQMNSLKPEDTAVYYCNADYNDYQTYSATTYEYWGQGTQVTVSS	low polyreactivity
QVHLVESGGGLVQAGGSLRLSCAASGFIFGSNAMGWSRQAPGKERELVAAITYSGASTYYADSVKGRFTISRDNAKNTVYLQMNSLKPEDTAVYYCNAVYSSVVDGSEGFDYWGQGTQVTVSS	low polyreactivity
QVHLVESGGGLVQAGGSLRLSCAASGFIFSFYGMGWSRHAPAKESELVAAISSGGTTYYADSVKGRFTISRDNAKNSVYLQMNSLKPEDTAVYYCAGRVARRTTSVFSYFSRYNYWGQGTQVSVSS	high polyreactivity
QVHLVESGGGLVQAGGSLRLSCAASGFIFSWYDMGWYRQAPGKERELVAAINWSGGSTYYADSVKGRFTISRDNAKNTVYLQIISLKPEDTAVYYCAAVRQSQFEYWGQGTQVTVSS	high polyreactivity
QVHLVESGGGLVQAGGSLRLSCAASGFTFGPYAMGWYRQAPGKERELVAGITWSGASTYYADSVKGRFTISRDNAKNTVYLQMNSLKPEDTAVYYCARYYRLGSRYDYWGQGTQVTLSS	low polyreactivity
QVHLVESGGGLVQAGGSLRLSCAASGFTFGVYAMGWYRQAPGKEREFVAAISTTVGSTYYADSVKGRFTISRDNAKNTVYLQLNSLKPEDTAVYYCAAEYTGYINYYIYEYWGQGTQVTVSS	low polyreactivity
QVHLVESGGGLVQAGGSLRLSCAASGFTFGWNAMGWYRQAPGKERELVASINSGGSTYNADSVKGRFTISRDNAKNTVYLEMNFLKPEDTAVYYCATAPYVTSRRYGPYEYWGQGSQVTVSS	low polyreactivity
QVHLVESGGGLVQAGGSLRLSCAASGFTFNRYAMGWYRQAPGKERELVATISSGGNTNYADSVKGRFTISRDNAKKTVYLQMNSLKPEDTAVYYCNADRWFHYYSYNYWGQGTQVTVSS	high polyreactivity
QVHLVESGGGLVQAGGSLRLSCAASGFTILTYGMGWYRQAPGKERELVAAIRWSGGRTYYADSVKGRFTISRDNAKNTVYLQMNSLKPEDTAVYYCAARYKFSTIRGVDYWGQGTQVTVSS	high polyreactivity
QVHLVESGGGLVQAGGSLRLSCAASGFTLYGNVMGWYRPAPGKERELVAAISWSTDSTYYADSLKGRFTISRDNAKNTVYLQMNSLKPEDTAIYYCAADYSHLPIAWYYYWGQGTQVTVSS	low polyreactivity
QVHLVESGGGLVQAGGSLRLSCAASGGIFDYYAMGWYRQAPGKERELVATISRGGSTYYADSVKGRFTISRDNAKNTVYLQMNSLKPEDTAVYYCAARQTRYWYRAWFVEHDYWGQGTKVTVSS	high polyreactivity
QVHLVESGGGLVQAGGSLRLSCAASGGIFYTYAMGWYRQAPGKEREMVAAISWRGGSTYYADSVKGRFTISRDNAKNTVYLQMNSLNPEDSAVYYCNKVTDYYYQIYWSYPYFTPDYFWGQGTQVTVSS	high polyreactivity
QVHLVESGGGLVQAGGSLRLSCAASGGTFDKNAMGWYSQAPGKESEFVAAITYGGGSTYYADSVKGRFTISRDNAKNTVYLQMTSLKPEDSAVYYCAVAIITYPYATGSSYDYWGQGTQVTVSS	low polyreactivity
